# Molecular target: bi1_human TMBIM6 (UniProt P55061)
# Sequence (P55061 whole entry): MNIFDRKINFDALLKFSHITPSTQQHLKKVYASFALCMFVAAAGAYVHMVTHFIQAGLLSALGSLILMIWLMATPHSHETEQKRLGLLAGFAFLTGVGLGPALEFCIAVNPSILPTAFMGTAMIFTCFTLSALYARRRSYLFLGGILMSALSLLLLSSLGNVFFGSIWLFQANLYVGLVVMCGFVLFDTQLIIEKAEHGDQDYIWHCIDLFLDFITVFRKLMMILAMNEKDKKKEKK
row,Substance,effect of a mutation on the interaction
1,Presenilin-1 (Homo sapiens) (from UniProt P49768) V272A,with no effect
2,Presenilin-1 (Homo sapiens) (from UniProt P49768) L381V,with no effect
3,Presenilin-1 (Homo sapiens) (from UniProt P49768) S169P,with no effect
4,Presenilin-1 (Homo sapiens) (from UniProt P49768) I439V,with no effect
5,Presenilin-1 (Homo sapiens) (from UniProt P49768) P284S,with no effect
6,Presenilin-1 (Homo sapiens) (from UniProt P49768) M233L,with no effect
7,Presenilin-1 (Homo sapiens) (from UniProt P49768) I143V,with no effect

# Reference: IntAct's records for PubMed 30559186
